According to US9695189B2, “Chemical crosslinkers and compositions thereof” (priority 2013, dated 2017):

Experiment: Cleavage of conjugate in potassium phosphate buffer and rat serum
Format: in vitro ADME
Conditions: potassium phosphate buffer pH 7.4 and rat serum (1:1), 37° C., overnight incubation
Protocol: A mixture of compound (26) (2.9 mg) in potassium phosphate buffer (1.0 mL, pH 7.4) and rat serum (1.0 mL, Aleken Biologicals) was incubated at 37° C.

Substance: L-glutathione N^2-CBZ-lysine conjugate [Compound 26]
- Cleavage (hydrolysis) of conjugate releasing N^2-(carbobenzyloxy)-L-lysine: hydrolysis of compound (26) to yield N^2-(carbobenzyloxy)-L-lysine was observed
